From patent US20200277355A1
Read-outs that look alike come from different tables or passages of the source.

Key:
TNFR1 [1] = target: T1, TNFR1
T1 chain: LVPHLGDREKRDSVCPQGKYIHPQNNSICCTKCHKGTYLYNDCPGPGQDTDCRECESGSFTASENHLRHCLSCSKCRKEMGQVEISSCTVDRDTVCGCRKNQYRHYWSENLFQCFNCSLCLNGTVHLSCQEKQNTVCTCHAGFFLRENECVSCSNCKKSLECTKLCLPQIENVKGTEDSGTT

TNFR1 [2] = target: T1, TNFR1
TNFR1 [3] = target: T1, TNFR1
TNFR1 [4] = target: T1, TNFR1; experiment: SPR (BIAcore), TNFR1 on CM-5 chip, peptide injected

B1: selective TNFR1 antagonist peptide Hydrostatin-SN10 (peptide)
peptide: DEQHLETELH
modifications: not checked
Kd (TNFR1 [1]): 2.83 µM | Kd (TNFR1 [2]): 2.8 µM | Kd (TNFR1 [3]): 2.77 µM | Kd (TNFR1 [4]): 2.8 µM
